To fix the notation:
B1: #44_VH4VK4_H06-H02/pVL (antibody, V domains shown)
VH: QVQLQESGPGLVKPSETLSLTCTVSGIDLSSYAMAWVRQAPGKGLEWIGVIDAAGHTFYASWVKGRFTISKDTSKTTVDLQMTSLTAEDTATYFCARDRGDFDVWGQGTLVTVSS
VL: DIQMTQSPSSLSASVGDRVTITCQASQSVYDNYLAWYQQKPGQPPKLLIHAASNLASGVPSRFSGSGSGTEFTLTISSLQPDDFATYYCLGEFSCTTTDCNVFGGGTKVEIK
notes: also called H06-02/pVL; Clone VH4_H06_H02
B2: #44_VH4VK4_H06-H04/pVL (antibody, V domains shown)
VH: B1 VH with R99A, D101S, D103H, V104P
VL: B1 VL
notes: also called H06-04/pVL; Clone VH4_H06_H04
B3: #44_VH4VK4_H06-H01/pVL (antibody, V domains shown)
VH: B1 VH with R99V, D101S
VL: B1 VL
notes: also called H06-01/pVL; Clone VH4H_06_H01
B4: #44_VH4VK4_H16-H04/pVL (antibody, V domains shown)
VH: B1 VH with V50A, A53R, H56N, R99A, D101S, D103H, V104P
VL: B1 VL
notes: also called Clone VH4_H16_H04; #44_VH4_H16-H04
B5: #44_VH4_H07/L2 (antibody, V domains shown)
VH: B1 VH with V50A, H56N, R99S, D101A, V104P
VL: DIQMTQSPSSLSASVGDRVTITCQASQSVYDNYLAWYQQKPGQPPKLLIHAASNLASGVPSRFSGSGSGTEFTLTISSLQPDDFATYYCLGEFSCQDTDCNVFGGGTKVEIKR
notes: also called Clone VH4_H07/L2
B6: #44_VH4_H09/L2 (antibody, V domains shown)
VH: B1 VH with V50A, A54R, H56N, R99S, D101A, V104P
VL: B5 VL
notes: also called Clone VH4_H09/L2
B7: #44_VH4_H14/L2 (antibody, V domains shown)
VH: B1 VH with V50A, A53S, H56S, F67S, R99S, D101A, V104P
VL: B5 VL
notes: also called Clone VH4_H14/L2
B8: #44_VH4_H13/L2 (antibody, V domains shown)
VH: B1 VH with V50A, A53S, H56N, R99S, D101A, V104P
VL: B5 VL
notes: also called Clone VH4_H13/L2
B9: #44_VH4_H06/L2 (antibody, V domains shown)
VH: B1 VH with R99S, D101T, V104P
VL: B5 VL
notes: also called Clone VH4_H06/L2
B10: #44 VH3VK2 humanised hIgG1 (antibody, V domains shown)
VH: QVQLQESGPGLVKPSETLSLTCTVSGIDLSSYAMAWVRQAPGKGLEWIGCIDRRGGTFYASWVKGRFTISKTSTTVDLQMTSLTAEDTATYFCARDSGAFDPWGQGTLVTVSS
VL: B1 VL with D1Q, Q3V, S64K
notes: also called VH3Vκ2
B11: #44 VH1VK2 humanised hIgG1 (antibody, V domains shown)
VH: QSVQESGGGLVKPSETLSLTCTVSGIDLSSYAMAWVRQAPGKGLEWIGCIDRRGGTFYASWVKGRFTISKTSTTVDLKMTSLTAEDTATYFCARDSGAFDPWGQGTLVTVSS
VL: B1 VL with D1Q, Q3V, S64K
notes: also called VH1Vκ2
B12: #44 VH3VK1 humanised hIgG1 (antibody, V domains shown)
VH: B10 VH
VL: B1 VL with D1Q, Q3V, G58R, S64K, P81C, K108E, E110V
notes: also called VH3Vκ1
B13: #44 VH6VK4 humanised hIgG1 (antibody, V domains shown)
VH: QVQLQESGPGLVKPSETLSLTCTVSGIDLSSYAMSWVRQAPGKGLEWVSCIDRRGGTFYASWVKGRFTISRDNSKNTLDLQMTSLTAEDTATYYCARDSGAFDPWGQGTLVTVSS
VL: B1 VL
notes: also called VH6Vκ4
B14: #44 VH5VK4 humanised hIgG1 (antibody, V domains shown)
VH: B13 VH with S35A, V48I, S49G
VL: B1 VL
notes: also called VH5Vκ4
B15: #44 VH6VK2 humanised hIgG1 (antibody, V domains shown)
VH: B13 VH
VL: B1 VL with D1Q, Q3V, S64K
notes: also called VH6Vκ2
B16: #44 VH5VK1 humanised hIgG1 (antibody, V domains shown)
VH: B13 VH with S35A, V48I, S49G
VL: B1 VL with D1Q, Q3V, G58R, S64K, P81C, K108E, E110V
notes: also called VH5Vκ1
B17: #44 VH6VK3 humanised hIgG1 (antibody, V domains shown)
VH: B13 VH
VL: B1 VL with S64K
notes: also called VH6Vκ3
B18: #44 VH5VK3 humanised hIgG1 (antibody, V domains shown)
VH: B13 VH with S35A, V48I, S49G
VL: B1 VL with S64K
notes: also called VH5Vκ3
B19: #44 VH4VK1 humanised hIgG1 (antibody, V domains shown)
VH: B1 VH with V50C, A53R, A54R, H56G, R99S, D101A, V104P
VL: B1 VL with D1Q, Q3V, G58R, S64K, P81C, K108E, E110V
notes: also called VH4Vκ1
B20: #44 VH1VK1 humanised hIgG1 (antibody, V domains shown)
VH: B11 VH
VL: B1 VL with D1Q, Q3V, G58R, S64K, P81C, K108E, E110V
notes: also called VH1Vκ1
B21: #44 VH5VK2 humanised hIgG1 (antibody, V domains shown)
VH: B13 VH with S35A, V48I, S49G
VL: B1 VL with D1Q, Q3V, S64K
notes: also called VH5Vκ2

Numbering of substitutions follows the chain as printed.

The Kd is the free concentration of one partner at which half of the binding sites on the other are occupied at equilibrium, for simple one-to-one binding. A word on the koff: it is the rate constant with which the complex falls apart. Broadly, the kon is a measure of how fast the partners come together.

T1 sequence (P10636 other isoform, or with tags, fused parts or gaps limits assumed): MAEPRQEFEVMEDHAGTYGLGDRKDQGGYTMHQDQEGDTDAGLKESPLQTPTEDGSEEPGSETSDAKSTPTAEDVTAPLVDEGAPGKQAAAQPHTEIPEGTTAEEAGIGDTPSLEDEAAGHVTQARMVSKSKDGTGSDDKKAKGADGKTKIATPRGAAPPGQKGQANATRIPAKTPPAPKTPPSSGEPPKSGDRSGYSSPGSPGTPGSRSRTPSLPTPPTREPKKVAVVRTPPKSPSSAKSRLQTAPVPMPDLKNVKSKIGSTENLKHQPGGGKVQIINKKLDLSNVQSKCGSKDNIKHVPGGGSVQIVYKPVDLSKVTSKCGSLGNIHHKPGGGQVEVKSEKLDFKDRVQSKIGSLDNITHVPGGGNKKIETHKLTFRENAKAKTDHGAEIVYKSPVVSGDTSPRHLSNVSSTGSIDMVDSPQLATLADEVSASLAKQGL

The first test has as its target T1, full length recombinant human 2N4R tau (human, UniProt P10636 1-758).
T1 construct: bought from rPeptide; pHrodo Red maleimide-labelled where it stands in uptake assays; also called tau1-441; full length tau
Description: SPR SCK, IgG on Protein A, tau in flow.
B1: the “Fold change (KD, to pVH/pVL)” value was 7.73; the Kd stood at 0.851 nM; the koff is 0.00489 s⁻¹; the kon amounted to 5.75e+06 M⁻¹ s⁻¹.
As for B2, the “Fold change (KD, to pVH/pVL)” value is 9.11; the Kd was 0.722 nM; the koff is 0.00443 s⁻¹; the association rate constant (kon) was determined as 6.14e+06 M⁻¹ s⁻¹.
As for B3, the “Fold change (KD, to pVH/pVL)” value was 1.71; the Kd was found to be 3.85 nM; the koff is 0.0121 s⁻¹; the kon worked out at 3.15e+06 M⁻¹ s⁻¹.
On to B4, for which the “Fold change (KD, to pVH/pVL)” value was 7.88; the Kd turned out to be 0.835 nM; the koff came to 0.00417 s⁻¹; the association rate constant (kon) came to 4.99e+06 M⁻¹ s⁻¹.
For B5 the same measures were 0.26, 24.9 nM, 0.0124 s⁻¹ and 497000 M⁻¹ s⁻¹.
The like results for B6 were, in that order, 0.45, 14.6 nM, 0.0106 s⁻¹ and 728000 M⁻¹ s⁻¹.
For B7 the same measures were 0.52, 12.6 nM, 0.0161 s⁻¹ and 1.28e+06 M⁻¹ s⁻¹.
Turning to B8, the “Fold change (KD, to pVH/pVL)” value is 0.28; the Kd was found to be 23.5 nM; the koff is 0.00844 s⁻¹; the kon was determined as 358000 M⁻¹ s⁻¹.
The like results for B9 were, in that order, 3.54, 1.86 nM, 0.00841 s⁻¹ and 4.52e+06 M⁻¹ s⁻¹.

The target of the next test is T2, Bovine serum albumin (bovine, UniProt P02769 25-607).
T2 construct: also called BSA
T2 sequence (P02769 25-607 limits assumed): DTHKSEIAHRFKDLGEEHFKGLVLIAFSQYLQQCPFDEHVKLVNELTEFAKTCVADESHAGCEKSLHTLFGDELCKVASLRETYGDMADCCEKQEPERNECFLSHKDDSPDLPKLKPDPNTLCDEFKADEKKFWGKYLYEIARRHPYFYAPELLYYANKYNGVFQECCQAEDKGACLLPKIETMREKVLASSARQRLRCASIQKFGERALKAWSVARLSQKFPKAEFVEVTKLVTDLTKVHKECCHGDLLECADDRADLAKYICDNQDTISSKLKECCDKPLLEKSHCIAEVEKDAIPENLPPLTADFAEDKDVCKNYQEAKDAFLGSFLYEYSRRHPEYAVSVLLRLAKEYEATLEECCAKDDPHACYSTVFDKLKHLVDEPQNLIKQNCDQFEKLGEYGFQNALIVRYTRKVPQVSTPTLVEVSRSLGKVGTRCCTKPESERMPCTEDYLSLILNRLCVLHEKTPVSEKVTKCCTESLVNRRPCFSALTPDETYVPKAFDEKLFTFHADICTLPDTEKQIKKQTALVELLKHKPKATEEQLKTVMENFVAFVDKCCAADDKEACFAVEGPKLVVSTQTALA
Briefly: ELISA on 1% BSA, HEK supernatant, anti-human IgG-HRP, n=1. The protocol:
FIG. 7. A panel of humanised anti-tau IgG bind to full length recombinant 2N4R tau in an ELISA format. Supernatants from HEK cells transiently transfected with each IgG clone were tested at 1:100 for binding to full length recombinant 2N4R tau (solid bars). […] Binding of anti-tau hIgG1 was detected using an HRP-conjugated anti-human secondary antibody and data are shown from a representative experiment (n=1 replicate).
Antigen was removed from wells and the plates were then blocked for 1 hour at RT with 5% dried milk in 1×TBS. Blocking solution was removed, HEK293 cell supernatant (1:100 in 1% BSA/1×TBS) was added to relevant wells, and plates were incubated for 1 hour at RT with gentle shaking. Plates were then washed four times with TBS/0.1% Tween (TBST). Goat anti-human IgG-HRP antibody (Thermo Fisher Scientific, Waltham, MA, USA), diluted 1:2000 in 5% milk/TBS, was added to each well and plates were incubated for 1 hour at RT with gentle shaking before being washed four times with TBST. 3,3′,5,5′-tetramethylbenzidine (TMB) ELISA solution was added to each well and plates were incubated for 15 mins at RT. An equal volume of 1 M sulfuric acid was added to each well and OD was measured at 450 nm.
On to B10, for which the binding result is reported as “no binding (tested: supernatant 1:100)”.
On the same count and under the same terms, in the case of B11 it was “no binding (tested: supernatant 1:100)”; in that of B12, “no binding (tested: supernatant 1:100)”.
In the case of B13, the binding result was “no binding (tested: supernatant 1:100)”.
The same measure, in the same setting: in the case of B14 it was “no binding (tested: supernatant 1:100)”; in that of B15, “no binding (tested: supernatant 1:100)”; in that of B16, “no binding (tested: supernatant 1:100)”.
On the same count and under the same terms, as for B17, the entry is “no binding (tested: supernatant 1:100)”.
On the same count and under the same terms, as for B18, the entry is “no binding (tested: supernatant 1:100)”; as for B19, “no binding (tested: supernatant 1:100)”.
With B20, the binding result was “no binding (tested: supernatant 1:100)”.
Regarding B21, the binding result is “no binding (tested: supernatant 1:100)”.

The target in the next test is T1, full length recombinant human 2N4R tau. Description: SPR SCK, IgG on Protein A, tau in flow. The source holds these as a separate data set. The method, then:
21.5 Assessment of antibody binding to tau (Biacore SCK analysis): Binding of anti-tau hIgG1 to full length recombinant 2N4R tau (Rpeptide; SEQ ID NO: 2) was assessed using the Biacore T200 (GE Healthcare, Chicago, IL, USA) running Biacore T200 Evaluation Software V2.0.1. hIgG1 were immobilised on a Protein A capture sensor chip in running buffer (HBS-EP+ buffer containing 1 mg/mL BSA) at 25° C., captured to ˜50 RU at 10 μL/min. For single-cycle kinetics experiments, recombinant 2N4R tau was flowed at concentrations ranging from 1.25 nM to 10 nM (2-fold dilutions) with an association time of 60 s and a dissociation time of 200 s. Curves were compared to a reference cell that was mock immobilized (no antibody present).
As to B10, the Kd was 7.64 nM, the “Relative KD (to VH0VK0)” value worked out at 1.99, the koff stood at 0.0356 s⁻¹ and the kon amounted to 4.66e+06 M⁻¹ s⁻¹.
Regarding B11, the Kd was 4.26 nM, the “Relative KD (to VH0VK0)” value turned out to be 1.11, the koff is 0.0232 s⁻¹ and the kon came to 5.43e+06 M⁻¹ s⁻¹.
For B12 the same measures were 4.35 nM, 1.14, 0.0121 s⁻¹ and 2.79e+06 M⁻¹ s⁻¹.
Consider B14, for which the Kd worked out at 9.63 nM, the “Relative KD (to VH0VK0)” value is 2.51, the koff came out at 0.0684 s⁻¹ and the kon is 7.11e+06 M⁻¹ s⁻¹.
For the molecule B16, the Kd came out at 8.31 nM, the “Relative KD (to VH0VK0)” value was 2.17, the koff was 0.187 s⁻¹ and the kon came to 2.25e+07 M⁻¹ s⁻¹.
Consider B18, for which the Kd amounted to 14.2 nM, the “Relative KD (to VH0VK0)” value was 3.71, the koff turned out to be 0.0406 s⁻¹ and the kon came to 2.86e+06 M⁻¹ s⁻¹.
The like results for B19 were, in that order, 6.81 nM, 1.78, 0.03 s⁻¹ and 4.4e+06 M⁻¹ s⁻¹.
In the case of B20, the Kd amounted to 3.16 nM, the “Relative KD (to VH0VK0)” value was 0.83, the koff was determined as 0.0232 s⁻¹ and the kon turned out to be 7.35e+06 M⁻¹ s⁻¹.
With B21, the Kd worked out at 12.6 nM and the “Relative KD (to VH0VK0)” value was 3.29.

The record behind these values is patent US20250270301A1 (GEN2 NEUROSCIENCE, published 2025).
